Laboratory results: patent US20220170923A1 (NATIONAL CHENG KUNG UNIVERSITY, published 2022)

Molecular target: T1, human angiotensin-converting enzyme 2 (ACE2) (human, UniProt Q9BYF1 18-740)
T1 construct: also called ACE2 receptor; human angiotensin-converting enzyme 2 on a cell surface
Assay: protein microarray, ACE2 in solution, Cy3 labeled anti-human IgG detection

T1 sequence (Q9BYF1 18-740 limits assumed): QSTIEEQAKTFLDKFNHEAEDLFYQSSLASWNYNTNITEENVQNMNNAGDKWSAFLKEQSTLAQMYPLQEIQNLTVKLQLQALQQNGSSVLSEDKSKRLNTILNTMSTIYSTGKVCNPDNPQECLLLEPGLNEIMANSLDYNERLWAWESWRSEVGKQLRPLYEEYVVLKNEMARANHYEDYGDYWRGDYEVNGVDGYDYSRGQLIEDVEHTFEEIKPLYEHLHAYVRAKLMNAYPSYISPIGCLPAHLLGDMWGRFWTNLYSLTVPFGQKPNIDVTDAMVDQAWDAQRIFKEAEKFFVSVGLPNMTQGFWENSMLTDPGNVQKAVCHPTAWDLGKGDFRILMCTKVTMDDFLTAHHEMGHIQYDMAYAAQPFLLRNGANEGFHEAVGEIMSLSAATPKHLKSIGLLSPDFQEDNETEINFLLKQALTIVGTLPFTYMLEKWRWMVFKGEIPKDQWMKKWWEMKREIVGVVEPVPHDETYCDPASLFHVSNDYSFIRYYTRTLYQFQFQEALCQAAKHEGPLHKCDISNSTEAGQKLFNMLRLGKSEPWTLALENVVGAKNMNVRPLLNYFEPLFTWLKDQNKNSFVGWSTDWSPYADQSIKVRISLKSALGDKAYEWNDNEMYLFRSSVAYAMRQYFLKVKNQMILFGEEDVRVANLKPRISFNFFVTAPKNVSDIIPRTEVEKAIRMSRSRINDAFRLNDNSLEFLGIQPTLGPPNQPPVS

B1: spike protein (S protein) of MERS-CoV with His-tag (other)
chain: YVDVGPDSVKSACIEVDIQQTFFDKTWPRPIDVSKADGIIYPQGRTYSNITITYQGLFPYQGDHGDMYVYSAGHATGTTPQKLFVANYSQDVKQFANGFVVRIGAAANSTGTVIISPSTSATIRKIYPAFMLGSSVGNFSDGKMGRFFNHTLVLLPDGCGTLLRAFYCILEPRSGNHCPAGNSYTSFATYHTPATDCSDGNYNRNASLNSFKEYFNLRNCTFMYTYNITEDEILEWFGITQTAQGVHLFSSRYVDLYGGNMFQFATLPVYDTIKYYSIIPHSIRSIQSDRKAWAAFYVYKLQPLTFLLDFSVDGYIRRAIDCGFNDLSQLHCSYESFDVESGVYSVSSFEAKPSGSVVEQAEGVECDFSPLLSGTPPQVYNFKRLVFTNCNYNLTKLLSLFSVNDFTCSQISPAAIASNCYSSLILDYFSYPLSMKSDLSVSSAGPISQFNYKQSFSNPTCLILATVPHNLTTITKPLKYSYINKCSRFLSDDRTEVPQLVNANQYSPCVSIVPSTVWEDGDYYRKQLSPLEGGGWLVASGSTVAMTEQLQMGFGITVQYGTDTNSVCPKLEFANDTKIASQLGNCVEYSLYGVSGRGVFQNCTAVGVRQQRFVYDAYQNLVGYYSDDGNYYCLRACVSVPVSVIYDKETKTHATLFGSVACEHISSTMSQYSRSTRSMLKRRDSTYGPLQTPVGCVLGLVNSSLFVEDCKLPLGQSLCALPDTPSTLTPRSVRSVPGEMRLASIAFNHPIQVDQLNSSYFKLSIPTNFSFGVTQEYIQTTIQKVTVDCKQYVCNGFQKCEQLLREYGQFCSKINQALHGANLRQDDSVRNLFASVKSSQSSPIIPGFGGDFNLTLLEPVSISTGSRSARSAIEDLLFDKVTIADPGYMQGYDDCMQQGPASARDLICAQYVAGYKVLPPLMDVNMEAAYTSSLLGSIAGVGWTAGLSSFAAIPFAQSIFYRLNGVGITQQVLSENQKLIANKFNQALGAMQTGFTTTNEAFHKVQDAVNNNAQALSKLASELSNTFGAISASIGDIIQRLDVLEQDAQIDRLINGRLTTLNAFVAQQLVRSESAALSAQLAKDKVNECVKAQSKRSGFCGQGTHIVSFVVNAPNGLYFMHVGYYPSNHIEVVSAYGLCDAANPTNCIAPVNGYFIKTNNTRIVDEWSYTGSSFYAPEPITSLNTKYVAPQVTYQNISTNLPPPLLGNSTGIDFQDELDEFFKNVSTSIPNFGSLTQINTTLLDLTYEMLSLQQVVKALNESYIDLKELGNYTYYNKWPW
B1: no binding (tested: 25 ng, 50 ng, 75 ng, 100 ng, and 125 ng).
